From article PMC12434095, “LysR-type transcriptional regulator CARR represses the expression of bla CAR-2 and reduces P. diazotrophicus resistance to cefalothin, cefuroxime and cefotaxime” (Frontiers in Cellular and Infection Microbiology, 2025)

What was measured:
Assay in all cases: purified protein
Format in all cases: biochemical, Phytobacter diazotrophicus
[1] = system: CO/N=C(\C(=O)N[C@@H]1C(=O)N2C(C(=O)O)=C(COC(N)=O)CS[C@H]12)c1ccco1; conditions: 50 mM HEPES pH 7.5, 25°C, 50 µM ZnSO4, 1.27 µM enzyme
[2] = system: CO/N=C(\C(=O)N[C@@H]1C(=O)N2C(C(=O)O)=C(COC(C)=O)CS[C@H]12)c1csc(N)n1; conditions: 50 mM HEPES pH 7.5, 25°C, 50 µM ZnSO4, 0.634 µM enzyme, kcat 0.61 in source
[3] = system: CC(=O)OCC1=C(C(=O)O)N2C(=O)[C@@H](NC(=O)Cc3cccs3)[C@H]2SC1; conditions: 50 mM HEPES pH 7.5, 25°C, 50 µM ZnSO4, 0.634 µM enzyme

Substance: CAR-2 (Phytobacter diazotrophicus)
- Km [1]: 49.28 µM
- Vmax [1]: 16.2 µM/min
- kcat [1]: 0.21 s⁻¹
- kcat/Km [1]: 4260 M⁻¹ s⁻¹
- Km [2]: 33.08 µM
- Vmax [2]: 23.4 µM/min
- kcat [2]: 0.62 s⁻¹
- kcat/Km [2]: 18700 M⁻¹ s⁻¹
- Km [3]: 63.78 µM
- Vmax [3]: 31.8 µM/min
- kcat [3]: 0.84 s⁻¹
- kcat/Km [3]: 13200 M⁻¹ s⁻¹
